Values quoted from earlier work in publication PMC10330121.

Experiments:
[1] = target: VRK1-K4me3 (Homo sapiens) (UniProt Q99986)
PAF15 (Homo sapiens) = PAF15 (Homo sapiens) (UniProt Q15004)
[2] = target: histone H3 N-terminal tail (Homo sapiens) (UniProt P68431)

Sequence of UHRF1 PHD (Q96T88 307-369): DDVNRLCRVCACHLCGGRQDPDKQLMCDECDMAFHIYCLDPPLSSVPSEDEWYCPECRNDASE
Sequence of VRK1-K4me3 (Homo sapiens) (Q99986 whole entry): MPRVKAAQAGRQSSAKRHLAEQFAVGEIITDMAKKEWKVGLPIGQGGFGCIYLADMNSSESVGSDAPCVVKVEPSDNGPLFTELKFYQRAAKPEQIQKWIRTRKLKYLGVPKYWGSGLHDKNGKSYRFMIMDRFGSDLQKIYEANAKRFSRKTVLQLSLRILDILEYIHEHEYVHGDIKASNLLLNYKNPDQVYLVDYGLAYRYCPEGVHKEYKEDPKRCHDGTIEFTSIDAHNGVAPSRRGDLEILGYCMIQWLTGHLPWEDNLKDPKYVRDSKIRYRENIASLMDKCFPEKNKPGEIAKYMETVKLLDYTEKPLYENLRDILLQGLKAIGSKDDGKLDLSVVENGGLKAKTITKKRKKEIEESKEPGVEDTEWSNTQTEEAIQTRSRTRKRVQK
Sequence of PAF15 (Homo sapiens) (Q15004 whole entry): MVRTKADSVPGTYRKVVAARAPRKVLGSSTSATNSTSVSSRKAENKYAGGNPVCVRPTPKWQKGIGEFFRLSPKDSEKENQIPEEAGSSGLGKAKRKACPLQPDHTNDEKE
Sequence of PHF8 PHD-Jumonji (Q9UPP1 37-483): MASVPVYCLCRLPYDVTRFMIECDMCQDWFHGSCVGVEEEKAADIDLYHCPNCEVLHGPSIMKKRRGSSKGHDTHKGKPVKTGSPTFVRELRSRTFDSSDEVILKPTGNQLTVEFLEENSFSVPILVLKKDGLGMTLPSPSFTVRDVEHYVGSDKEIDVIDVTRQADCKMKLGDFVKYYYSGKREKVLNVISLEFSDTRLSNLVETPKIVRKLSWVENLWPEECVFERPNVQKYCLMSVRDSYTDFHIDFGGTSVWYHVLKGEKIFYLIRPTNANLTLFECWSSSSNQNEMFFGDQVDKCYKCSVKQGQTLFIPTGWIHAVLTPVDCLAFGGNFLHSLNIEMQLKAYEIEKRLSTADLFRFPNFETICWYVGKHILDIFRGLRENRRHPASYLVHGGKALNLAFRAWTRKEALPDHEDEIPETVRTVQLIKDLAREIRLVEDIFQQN

Kd [1]	Kd (PAF15 (Homo sapiens))	Kd [2]	Substance
42 nM			PHF8 PHD-Jumonji (from UniProt Q9UPP1)
	2000 nM	2000 nM	UHRF1 PHD (from UniProt Q96T88)
